Consider two substances from publication PMC9848473.

Assay [1] addresses Bacillus subtilis Rel N-terminal domain region (RelBs^NTD; residues 1 to 373) (Bacillus subtilis). The experiment in a line: ITC; DarB or DarB variants in the syringe at 200 μM, RelBs^NTD or variants in the cell at 15 μM; 25°C; 50 mM Hepes pH 7.5, 500 mM KCl, 500 mM NaCl, 10 mM MgCl2, 1 mM TCEP, 0.002% mellitic acid.
In assay [2] the target is RelBs^NTD Y279A (B. subtilis). The experiment in a line: ITC; DarB or DarB variant (200 uM) in the syringe titrated into RelBs^NTD or variant (15 uM) in the cell; 25 °C; 50 mM Hepes pH 7.5, 500 mM KCl, 500 mM NaCl, 10 mM MgCl2, 1 mM TCEP, 0.002% mellitic acid. (Isothermal titration calorimetry measures the heat released or taken up as one component is titrated into another.)

The target in assay [3] is Rel (Bacillus subtilis) (UniProt O54408). Particulars: cited from earlier work.

As for “Bacillus subtilis DarB (from UniProt O31698 1-147) (natural protein)”, the results for the dissociation constant (Kd) in assay [1] and in assay [2] were 1400 nM and 4 µM, respectively.
As for DarB (from UniProt O31698), the Kd (commonly the equilibrium constant for the complex coming apart) in assay [3] was 650 nM.
